Assay results taken from article PMC5308735, “Inhibition of insulin-like growth factor II (IGF-II)-dependent cell growth by multidentate pentamannosyl 6-phosphate-based ligands targeting the mannose 6-phosphate/IGF-II receptor” (Oncotarget, 2016).

Experiments:
[1] = biological target: soluble bovine M6P/IGF2R (mannose 6-phosphate/insulin-like growth factor II receptor) (bovine) (UniProt P08169); experiment: radioligand binding; competitive displacement of 1.5 nM ^125I-PMP-BSA tracer from soluble bovine M6P/IGF2R coupled to Sepharose 4B; test ligands 1 pM to 10 μM; 50 mM HEPES pH 7.4, 0.15 M NaCl, 0.05% Triton X-100; 16 h at 4°C
Chain of soluble bovine M6P/IGF2R (mannose 6-phosphate/insulin-like growth factor II receptor) (bovine) (P08169 45-2313): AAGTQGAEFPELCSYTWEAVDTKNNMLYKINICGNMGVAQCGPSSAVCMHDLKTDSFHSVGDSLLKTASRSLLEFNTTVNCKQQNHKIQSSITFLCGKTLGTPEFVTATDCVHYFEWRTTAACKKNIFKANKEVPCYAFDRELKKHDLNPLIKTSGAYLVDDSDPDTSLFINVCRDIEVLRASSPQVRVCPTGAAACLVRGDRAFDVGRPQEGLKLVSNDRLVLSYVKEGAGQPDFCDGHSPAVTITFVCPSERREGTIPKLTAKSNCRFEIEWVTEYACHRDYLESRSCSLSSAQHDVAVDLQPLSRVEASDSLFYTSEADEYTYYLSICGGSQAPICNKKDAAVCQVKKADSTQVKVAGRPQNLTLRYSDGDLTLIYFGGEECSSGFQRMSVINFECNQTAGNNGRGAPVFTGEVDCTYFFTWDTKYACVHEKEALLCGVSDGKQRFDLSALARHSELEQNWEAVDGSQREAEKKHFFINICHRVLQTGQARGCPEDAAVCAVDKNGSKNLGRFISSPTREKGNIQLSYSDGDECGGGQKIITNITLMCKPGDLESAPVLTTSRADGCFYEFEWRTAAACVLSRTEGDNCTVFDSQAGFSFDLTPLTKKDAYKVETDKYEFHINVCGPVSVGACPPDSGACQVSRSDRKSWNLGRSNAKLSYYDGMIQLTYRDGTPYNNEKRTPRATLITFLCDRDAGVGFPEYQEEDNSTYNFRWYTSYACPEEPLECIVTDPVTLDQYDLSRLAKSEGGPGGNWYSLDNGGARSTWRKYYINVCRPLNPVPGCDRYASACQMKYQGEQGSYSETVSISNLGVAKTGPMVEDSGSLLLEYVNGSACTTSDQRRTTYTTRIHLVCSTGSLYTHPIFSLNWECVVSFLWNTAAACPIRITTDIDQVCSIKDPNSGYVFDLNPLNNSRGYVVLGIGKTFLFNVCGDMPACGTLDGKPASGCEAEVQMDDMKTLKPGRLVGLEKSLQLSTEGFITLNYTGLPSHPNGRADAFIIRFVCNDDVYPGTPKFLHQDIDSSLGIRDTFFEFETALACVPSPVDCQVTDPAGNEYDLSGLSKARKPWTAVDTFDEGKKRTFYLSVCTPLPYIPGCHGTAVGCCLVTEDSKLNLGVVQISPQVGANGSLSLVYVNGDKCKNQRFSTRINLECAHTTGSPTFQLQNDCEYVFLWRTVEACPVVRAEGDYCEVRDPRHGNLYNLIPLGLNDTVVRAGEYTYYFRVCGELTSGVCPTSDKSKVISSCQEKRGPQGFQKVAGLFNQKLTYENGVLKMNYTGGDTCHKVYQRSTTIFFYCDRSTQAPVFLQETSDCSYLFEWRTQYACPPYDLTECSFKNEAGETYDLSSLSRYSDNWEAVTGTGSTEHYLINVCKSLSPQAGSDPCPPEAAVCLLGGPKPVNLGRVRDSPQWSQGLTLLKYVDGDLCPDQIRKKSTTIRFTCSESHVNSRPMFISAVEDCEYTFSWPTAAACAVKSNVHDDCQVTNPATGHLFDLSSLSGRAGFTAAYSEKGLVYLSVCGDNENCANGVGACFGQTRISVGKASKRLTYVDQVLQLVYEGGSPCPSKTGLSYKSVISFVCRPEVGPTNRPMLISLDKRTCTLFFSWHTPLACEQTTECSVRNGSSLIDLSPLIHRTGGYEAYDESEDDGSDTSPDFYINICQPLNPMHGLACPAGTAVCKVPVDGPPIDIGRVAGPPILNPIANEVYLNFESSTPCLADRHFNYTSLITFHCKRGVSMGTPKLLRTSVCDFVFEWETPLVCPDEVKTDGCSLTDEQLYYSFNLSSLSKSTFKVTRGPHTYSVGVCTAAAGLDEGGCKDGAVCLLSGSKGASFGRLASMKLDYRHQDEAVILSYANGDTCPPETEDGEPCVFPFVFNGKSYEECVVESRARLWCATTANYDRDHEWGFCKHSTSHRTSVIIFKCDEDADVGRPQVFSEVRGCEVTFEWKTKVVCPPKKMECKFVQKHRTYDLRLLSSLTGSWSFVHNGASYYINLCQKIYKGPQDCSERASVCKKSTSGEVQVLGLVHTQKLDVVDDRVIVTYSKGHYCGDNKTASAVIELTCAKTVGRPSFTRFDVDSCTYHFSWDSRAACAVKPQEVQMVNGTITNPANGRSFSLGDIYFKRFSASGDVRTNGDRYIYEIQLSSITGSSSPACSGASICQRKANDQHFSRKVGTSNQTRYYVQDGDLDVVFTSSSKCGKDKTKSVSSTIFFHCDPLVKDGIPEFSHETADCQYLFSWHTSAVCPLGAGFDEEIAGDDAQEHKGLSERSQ

[2] = biological target: soluble bovine M6P/IGF2R (mannose 6-phosphate/insulin-like growth factor II receptor) (bovine) (UniProt P08169)
[3] = biological target: recombinant human insulin-like growth factor II (IGF-II); experiment: direct radioligand binding (125I-IGF-II) to FLAG-tagged receptor immunoprecipitated on M2 α-FLAG affinity resin; settings: equimolar amounts of expressed soluble receptors from cell lysates; parent: est. 5800; read off a plot
[4] = biological target: T1, wild-type, full-length ectodomain M6P/IGF2R mini-receptor with C-terminal FLAG (1-15F) (human, UniProt P11717 41-2304); experiment: radioligand binding; direct binding of ^125I-PMP-BSA or ^125I-hGUS to equimolar FLAG-tagged soluble receptors immunoadsorbed from HEK 293 lysates/conditioned media to M2 α-FLAG resin and washed; settings: both partners purified
T1 construct: human M6P/IGF2R, all 15 ectodomain repeats; also called wild-type M6P/IGF2R construct; source: HEK 293, transiently transfected; cell lysates and conditioned media, immunoadsorbed to M2 α-FLAG resin; not shown: FLAG, C-terminal, kept

[5] = biological target: T2, full-length ectodomain M6P/IGF2R mini-receptor with R426A (repeat 3), C-terminal FLAG (human, UniProt P11717 41-2304, R426A); experiment: as above; settings: both partners purified
T2 construct: human M6P/IGF2R, all 15 ectodomain repeats, arginine-to-alanine substitution in the 3rd domain; also called R426A mutant construct; source: HEK 293, transiently transfected; cell lysates and conditioned media, immunoadsorbed to M2 α-FLAG resin; not shown: FLAG, C-terminal, kept

[6] = biological target: T3, full-length ectodomain M6P/IGF2R mini-receptor with R1325A (repeat 9), C-terminal FLAG (human, UniProt P11717 41-2304, R1325A); experiment: as above; settings: both partners purified
T3 construct: human M6P/IGF2R, all 15 ectodomain repeats, arginine-to-alanine substitution in the 9th domain; also called R1325AF; source: HEK 293, transiently transfected; cell lysates and conditioned media, immunoadsorbed to M2 α-FLAG resin; not shown: FLAG, C-terminal, kept

[7] = biological target: T1, wild-type, full-length ectodomain …; experiment: radioligand binding; competitive displacement of 2 nM ^125I-PMP-BSA from FLAG-tagged soluble receptors immunoprecipitated on M2 α-FLAG resin and washed; PMP-ligands 1 pM to 10 μM; assay buffer, 4 h at 4°C; settings: both partners purified
[8] = biological target: T3, full-length ectodomain M6P/IGF2R …; experiment: as above; settings: both partners purified
[9] = biological target: T4, soluble bovine M6P/IGF2R (mannose 6-phosphate/insulin-like growth factor II receptor) (bovine, UniProt P08169 45-2313); experiment: radioligand binding; competitive displacement of 1.5 nM ^125I-PMP-BSA tracer from soluble bovine M6P/IGF2R coupled to Sepharose 4B; test ligands 1 pM to 10 μM; 50 mM HEPES pH 7.4, 0.15 M NaCl, 0.05% Triton X-100; 16 h at 4°C; settings: both partners purified
T4 construct: soluble form of the bovine mannose 6-phosphate/IGF-II receptor as it circulates in fetal bovine serum; also called sIGF2R; soluble M6P/IGF2R; source: purified from fetal bovine serum; coupled to Sepharose 4B for the displacement assay
T4 sequence (P08169 45-2313): as above

Molecule | IC50 [1] | RBA (relative binding affinity, normalized to free M6P) [1] | response [3] | other results
pentamannosyl 6-phosphate-derivatized bovine insulin (PMP-INS) (ligand) | 13 nM | 5540 | – | –
pentamannosyl 6-phosphate-derivatized lysyl-tyrosyl-lysine (PMP-KYK) (peptide) | 120 nM | 600 | – | –
pentamannosyl 6-phosphate-derivatized seryl-tyrosyl-lysine (PMP-SYK) (peptide) | 52 nM | 1380 | – | suppression of growth (MTT, 2 days) of mouse L cells over-expressing the M6P/IGF2R, PMP-SYK 1 pM to 1 μM; blocked by saturating M6P [2]: 50%
wild-type, full-length ectodomain M6P/IGF2R mini-receptor with C-terminal FLAG (1-15F) (from UniProt P11717) R426A | – | – | 5300 CPM | –
wild-type, full-length ectodomain M6P/IGF2R mini-receptor with C-terminal FLAG (1-15F) (from UniProt P11717) R426A; R1325A | – | – | 5900 CPM | –
wild-type, full-length ectodomain M6P/IGF2R mini-receptor with C-terminal FLAG (1-15F) (from UniProt P11717) R1325A | – | – | 5000 CPM | –
human β-glucuronidase (hGUS) (enzyme, UniProt P08236 23-651, looked up, multiple high-mannose N-linked oligosaccharides capped with M6P; ^125I-labelled (IODOGEN) where used as tracer, human β-glucuronidase, a homotetrameric lysosomal enzyme; source: purified human β-glucuronidase provided by Dr. William S. Sly) LQGGMLYPQESPSRECKELDGLWSFRADFSDNRRRGFEEQWYRRPLWESGPTVDMPVPSSFNDISQDWRLRHFVGWVWYEREVILPERWTQDLRTRVVLRIGSAHSYAIVWVNGVDTLEHEGGYLPFEADISNLVQVGPLPSRLRITIAINNTLTPTTLPPGTIQYLTDTSKYPKGYFVQNTYFDFFNYAGLQRSVLLYTTPTTYIDDITVTTSVEQDSGLVNYQISVKGSNLFKLEVRLLDAENKVVANGTGTQGQLKVPGVSLWWPYLMHERPAYLYSLEVQLTAQTSLGPVSDFYTLPVGIRTVAVTKSQFLINGKPFYFHGVNKHEDADIRGKGFDWPLLVKDFNLLRWLGANAFRTSHYPYAEEVMQMCDRYGIVVIDECPGVGLALPQFFNNVSLHHHMQVMEEVVRRDKNHPAVVMWSVANEPASHLESAGYYLKMVIAHTKSLDPSRPVTFVSNSNYAADKGAPYVDVICLNSYYSWYHDYGHLELIQLQLATQFENWYKKYQKPIIQSEYGAETIAGFHQDPPLMFTEEYQKSLLEQYHLGLDQKRRKYVVGELIWNFADFMTEQSPTRVLGNKKGIFTRQRQPKSAAFLLRERYWKIANETRYPHSVAKSQCLENSLFT | – | – | – | binding result [4]: binds; binding result [5]: binds; binding result [6]: binds
pentamannosyl 6-phosphate-derivatized chicken egg ovalbumin (PMP-OVA) (ligand, UniProt P01012 1-386, looked up, pentamannosyl 6-phosphate (PMP) coupled by reductive amination, approximately 13 PMP groups, chicken egg white albumin (ovalbumin); source: bought: Sigma (A-5503), conjugated to PMP with NaCNBH3, dialysed and gel filtered (Sephadex G-50)) MGSIGAASMEFCFDVFKELKVHHANENIFYCPIAIMSALAMVYLGAKDSTRTQINKVVRFDKLPGFGDSIEAQCGTSVNVHSSLRDILNQITKPNDVYSFSLASRLYAEERYPILPEYLQCVKELYRGGLEPINFQTAADQARELINSWVESQTNGIIRNVLQPSSVDSQTAMVLVNAIVFKGLWEKAFKDEDTQAMPFRVTEQESKPVQMMYQIGLFRVASMASEKMKILELPFASGTMSMLVLLPDEVSGLEQLESIINFEKLTEWTSSNVMEERKIKVYLPRMKMEEKYNLTSVLMAMGITDVFSSSANLSGISSAESLKISQAVHAAHAEINEAGREVVGSAEAGVDAASVSEEFRADHPFLFCIKHIATNAVLFFGRCVSP | – | – | – | binding result [7]: binds; binding result [8]: binds; IC50 [9]: 21 nM
